Numbered stars: 1 amine (or outer) side, 2 acyl side, 3 side chain; on linkers, the order of the positions; unused ones are H or OH. Bridge positions count the residues as written; N and C are the ends. Ends that are not written are not given here. Phenylene(1,4-NHCOCH2)2 = O=C(C[*:1])Nc1ccc(NC(=O)C[*:2])cc1
What was measured:
[1] = molecular target: T1, CHIP (Homo sapiens, UniProt Q9UNE7); experiment: Naive Library Presenter Screening (phage, NGS), CHIP; format: binding; conditions: for interaction data, BLANK: Blank = Media only
T1 construct: N-term truncated CHIP (also known as STUB1, Uniprot ID: Q9UNE7, residues 23-303); made in house; host or cells: E. coli BL21 CodonPlus
T1 sequence (Q9UNE7 23-303): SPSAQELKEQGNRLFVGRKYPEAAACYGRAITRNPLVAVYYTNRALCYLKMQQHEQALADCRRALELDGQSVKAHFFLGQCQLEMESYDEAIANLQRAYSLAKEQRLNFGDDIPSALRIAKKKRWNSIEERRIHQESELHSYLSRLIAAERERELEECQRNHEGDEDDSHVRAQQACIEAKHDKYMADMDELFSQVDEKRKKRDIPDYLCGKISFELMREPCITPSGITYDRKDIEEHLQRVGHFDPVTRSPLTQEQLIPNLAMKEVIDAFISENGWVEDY
Description: To conduct phage library screening, previously described procedures were utilized in accordance with the present disclosure.
Next-generation sequencing was performed as described in accordance with the present disclosure.
Hit ID and Clustering is performed according to a described procedure in accordance with the present disclosure.

[2] = molecular target: T2, RNF31 UBA domain (Homo sapiens, UniProt Q96EP0); experiment: Phage Library Screening with NGS, RNF31 UBA domain; format: binding; conditions: for phage screen NGS read-out at Target Concentration 10 / phage screen NGS read-out at Target Concentration 30 / phage screen NGS read-out at Target Concentration 100 / phage screen NGS read-out at Target Concentration 300: no competitor; for Phage library screen NGS readout, BLANK: cluster C46
T2 construct: RNF31 UBA domain protein (residues 480-639) with N-terminal Thioredoxin-TEV-6×his-yBBr-3C tags; Thioredoxin (N, cleaved yes); made in house; host or cells: E. coli BL21 (DE3) pLysS
T2 sequence (Q96EP0 480-639): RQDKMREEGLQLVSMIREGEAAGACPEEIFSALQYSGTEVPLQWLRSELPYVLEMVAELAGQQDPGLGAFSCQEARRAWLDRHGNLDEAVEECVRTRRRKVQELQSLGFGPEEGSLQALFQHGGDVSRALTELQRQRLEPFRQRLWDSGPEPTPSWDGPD

[3] = CHIP clusters (C83, C84), first column
[4] = CHIP clusters (C83, C84), second column
[5] = CHIP clusters (C83, C84), target concentration 10 nM
[6] = CHIP clusters (C83, C84), target concentration 30 nM
[7] = CHIP clusters (C83, C84), target concentration 100 nM
[8] = CHIP clusters (C83, C84), target concentration 300 nM
[9] = CHIP clusters (C83, C84), target concentration 1000 nM, first column
[10] = CHIP clusters (C83, C84), target concentration 1000 nM, second column
[11] = CHIP target concentration 10 nM
[12] = CHIP target concentration 30 nM
[13] = CHIP target concentration 100 nM
[14] = CHIP target concentration 300 nM
[15] = CHIP target concentration 1000 nM, first column
[16] = CHIP target concentration 1000 nM, second column

Sequence: DPAELFCTEAADICMVD (linker 7-14 via Phenylene(1,4-NHCOCH2)2 (inferred))
- interaction data, BLANK [1, 3]: 0
- interaction data, BLANK [1, 4]: 0
- interaction data at Target Concentration 10 [1, 5]: 0
- interaction data at Target Concentration 30 [1, 6]: 0
- interaction data at Target Concentration 100 [1, 7]: 0
- interaction data at Target Concentration 300 [1, 8]: 18
- interaction data at Target Concentration 1000 [1, 9]: 13
- interaction data at Target Concentration 1000 [1, 10]: 22

Sequence: PCWNAWMVCSV (linker 2-9 via Phenylene(1,4-NHCOCH2)2 (inferred))
- interaction data at Target Concentration 10 [1, 11]: 2
- interaction data at Target Concentration 30 [1, 12]: 44
- interaction data at Target Concentration 100 [1, 13]: 334
- interaction data at Target Concentration 300 [1, 14]: 474
- interaction data at Target Concentration 1000 [1, 15]: 690
- interaction data at Target Concentration 1000 [1, 16]: 691

Sequence: DPAFEQCQFAAAMCLHH (linker 7-14 via Phenylene(1,4-NHCOCH2)2 (inferred))
- interaction data, BLANK [1, 3]: 0
- interaction data, BLANK [1, 4]: 0
- interaction data at Target Concentration 10 [1, 5]: 0
- interaction data at Target Concentration 30 [1, 6]: 6
- interaction data at Target Concentration 100 [1, 7]: 1
- interaction data at Target Concentration 300 [1, 8]: 17
- interaction data at Target Concentration 1000 [1, 9]: 42
- interaction data at Target Concentration 1000 [1, 10]: 21

Sequence: PMCSDAWLFCE (linker 3-10 via Phenylene(1,4-NHCOCH2)2 (inferred))
- interaction data at Target Concentration 10 [1, 11]: 0
- interaction data at Target Concentration 30 [1, 12]: 0
- interaction data at Target Concentration 100 [1, 13]: 0
- interaction data at Target Concentration 300 [1, 14]: 74
- interaction data at Target Concentration 1000 [1, 15]: 143
- interaction data at Target Concentration 1000 [1, 16]: 57

Sequence: PCWSAWLACEL (linker 2-9 via Phenylene(1,4-NHCOCH2)2 (inferred))
- interaction data at Target Concentration 10 [1, 11]: 0
- interaction data at Target Concentration 30 [1, 12]: 81
- interaction data at Target Concentration 100 [1, 13]: 72
- interaction data at Target Concentration 300 [1, 14]: 130
- interaction data at Target Concentration 1000 [1, 15]: 220
- interaction data at Target Concentration 1000 [1, 16]: 206

Sequence: DPAFFECVRAASICMVD (linker 7-14 via Phenylene(1,4-NHCOCH2)2 (inferred))
- interaction data, BLANK [1, 3]: 0
- interaction data, BLANK [1, 4]: 0
- interaction data at Target Concentration 10 [1, 5]: 0
- interaction data at Target Concentration 30 [1, 6]: 0
- interaction data at Target Concentration 100 [1, 7]: 0
- interaction data at Target Concentration 300 [1, 8]: 51
- interaction data at Target Concentration 1000 [1, 9]: 41
- interaction data at Target Concentration 1000 [1, 10]: 54

Sequence: ICYTAWLECE (linker 2-9 via Phenylene(1,4-NHCOCH2)2 (inferred))
- interaction data at Target Concentration 10 [1, 11]: 0
- interaction data at Target Concentration 30 [1, 12]: 1
- interaction data at Target Concentration 100 [1, 13]: 5
- interaction data at Target Concentration 300 [1, 14]: 9
- interaction data at Target Concentration 1000 [1, 15]: 7
- interaction data at Target Concentration 1000 [1, 16]: 12

Sequence: DPALEECTQAAHICMVD (linker 7-14 via Phenylene(1,4-NHCOCH2)2 (inferred); not fully specified (C-terminus))
- interaction data, BLANK [1, 3]: 0
- interaction data, BLANK [1, 4]: 0
- interaction data at Target Concentration 10 [1, 5]: 0
- interaction data at Target Concentration 30 [1, 6]: 0
- interaction data at Target Concentration 100 [1, 7]: 3
- interaction data at Target Concentration 300 [1, 8]: 14
- interaction data at Target Concentration 1000 [1, 9]: 26
- interaction data at Target Concentration 1000 [1, 10]: 10

Sequence: ICYNAWFECE (linker 2-9 via Phenylene(1,4-NHCOCH2)2 (inferred))
- interaction data at Target Concentration 10 [1, 11]: 0
- interaction data at Target Concentration 30 [1, 12]: 2
- interaction data at Target Concentration 100 [1, 13]: 9
- interaction data at Target Concentration 300 [1, 14]: 11
- interaction data at Target Concentration 1000 [1, 15]: 18
- interaction data at Target Concentration 1000 [1, 16]: 14

Sequence: DPAFVRCQFAAASCHTI (linker 7-14 via Phenylene(1,4-NHCOCH2)2 (inferred))
- interaction data, BLANK [1, 3]: 0
- interaction data, BLANK [1, 4]: 0
- interaction data at Target Concentration 10 [1, 5]: 0
- interaction data at Target Concentration 30 [1, 6]: 0
- interaction data at Target Concentration 100 [1, 7]: 0
- interaction data at Target Concentration 300 [1, 8]: 22
- interaction data at Target Concentration 1000 [1, 9]: 27
- interaction data at Target Concentration 1000 [1, 10]: 19

Sequence: DPAQQHCSAAAAWCVVL
- phage screen NGS read-out at Target Concentration 10 [2]: 0
- phage screen NGS read-out at Target Concentration 30 [2]: 0
- phage screen NGS read-out at Target Concentration 100 [2]: 1
- phage screen NGS read-out at Target Concentration 300 [2]: 10

Sequence: DPARWVCELAAQNCLYR
- phage screen NGS read-out at Target Concentration 10 [2]: 0
- phage screen NGS read-out at Target Concentration 30 [2]: 1
- phage screen NGS read-out at Target Concentration 100 [2]: 1
- phage screen NGS read-out at Target Concentration 300 [2]: 1

Sequence: DPADYICYLAANNCLYH
- phage screen NGS read-out at Target Concentration 10 [2]: 3
- phage screen NGS read-out at Target Concentration 30 [2]: 1
- phage screen NGS read-out at Target Concentration 100 [2]: 4
- phage screen NGS read-out at Target Concentration 300 [2]: 19

Sequence: DPAHVRCTSAALWCNIF
- Phage library screen NGS readout, Target Concentration 10 ([2]; RNF31 UBA domain cluster C46, target concentration 10): 0
- Phage library screen NGS readout, Target Concentration 30 ([2]; RNF31 UBA domain cluster C46, target concentration 30): 0
- Phage library screen NGS readout, Target Concentration 100 ([2]; RNF31 UBA domain cluster C46, target concentration 100): 3
- Phage library screen NGS readout, Target Concentration 300 ([2]; RNF31 UBA domain cluster C46, target concentration 300): 4
- Phage library screen NGS readout, Target Concentration 1000 ([2]; RNF31 UBA domain cluster C46, target concentration 1000, first column): 5
- Phage library screen NGS readout, Target Concentration 1000 ([2]; RNF31 UBA domain cluster C46, target concentration 1000, second column): 7
- Phage library screen NGS readout, BLANK ([2]; column 1 of 5): 0
- Phage library screen NGS readout, BLANK ([2]; column 2 of 5): 0
- Phage library screen NGS readout, BLANK ([2]; column 3 of 5): 0
- Phage library screen NGS readout, BLANK ([2]; column 4 of 5): 0
- Phage library screen NGS readout, BLANK ([2]; column 5 of 5): 0

Sequence: DPAREHCAAAATWCOLL (DPAREHCAAAATWCQLL)
- phage screen NGS read-out at Target Concentration 10 [2]: 1
- phage screen NGS read-out at Target Concentration 30 [2]: 0
- phage screen NGS read-out at Target Concentration 100 [2]: 1
- phage screen NGS read-out at Target Concentration 300 [2]: 28

Sequence: DPAHILCEMAARNCLYN
- phage screen NGS read-out at Target Concentration 10 [2]: 3
- phage screen NGS read-out at Target Concentration 30 [2]: 1
- phage screen NGS read-out at Target Concentration 100 [2]: 1
- phage screen NGS read-out at Target Concentration 300 [2]: 1

Sequence: DPAQNHCDSAAVFCYIL
- phage screen NGS read-out at Target Concentration 10 [2]: 0
- phage screen NGS read-out at Target Concentration 30 [2]: 0
- phage screen NGS read-out at Target Concentration 100 [2]: 1
- phage screen NGS read-out at Target Concentration 300 [2]: 8

Sequence: DPAEWICRMAAMNCLYQ (Ac-DPAEWICRMAAMNCLYQ-NH2; not fully specified (bridges); cysteine pairing not given here)
- phage screen NGS read-out at Target Concentration 10 [2]: 0
- phage screen NGS read-out at Target Concentration 30 [2]: 0
- phage screen NGS read-out at Target Concentration 100 [2]: 4
- phage screen NGS read-out at Target Concentration 300 [2]: 10
